One test concerns Rat-1 cells. Nature of the test: Over expression of Mob-5 in Rat-1 cells, morphological transformation. The test is classed as cell-based. The conditions noted are these: retroviral over expression of Mob-5 alone in Rat-1 cells. The text has this: Over expression of the full length mob-5 cDNA with retroviral vector in a variety of rodent fibroblasts including Rat-1 cells led to high level secretion of Mob-5 protein with a predicted MW of 23 KD into the culture media, which could be readily detected by western blot using polyclonal antibody directed against the recombinant Mob-5 (FIG. 4A).
Construction of mob-5 mammalian expression construct A 680-bp BspHI-Bgl II restriction fragment containing the entire coding region of mob-5 was generated by PCR using cloned mob-5 cDNA as a template. The targeting construct was subsequently inserted between the Nco I and Bam I sites of retroviral vector pMFG-S (Danos and Mulligan, 1988; Dranoff, G. et al. 1993) and sequenced to ensure the sequence accuracy.
Transfection and Retroviral Infection Recombinant plasmids were transfected into target cells by the standard calcium phosphate precipitation method. For retroviral packaging, pMFG-S-Mob-5 was cotransfected with pCMV-Neo vector at a rate of 10:1 (10 μg of pCMV-S-rMob-5: 1 μg of pCMV-Neo) into the CRIP packaging cells to produce G418 (1 mg/ml) resistant stable cell lines. Retroviral infection was carried out essentially as described previously (Zhang et al., 1998). […]

The subject of test [1] is putative Mob-5 receptor on the cell surface of h-ras transformed RIE cells. Nature of the test: AP fusion protein receptor binding assay on RIE cells before and after h-ras transformation. More on the design: species or system rat. The conditions noted are these: normal versus h-ras transformed RIE cells, media at 0.7 unit/ml. Here is the method: (E) Mob-5-AP, but not hMob-5-AP, binds specifically to the cell surface of oncogenic h-ras transformed RIE cells. Both the normal and oncogenic h-ras transformed RIE cells were analyzed for the ability to bind Mob-5-AP versus AP alone. The same experiment was carried out with hMob-5-AP and AP alone. The cell surface bound AP activity was measured to reveal a species specific Mob-5 binding activity present only on the cell surface of the h-ras transformed RIE cells. The result is representative of at least 3 independent experiments.
As in Rat-1 cells, the putative Mob-5 receptor was also found to be differentially expressed between the normal and h-ras transformed RIE cells using Mob-5-AP fusion protein as a ligand (FIG. 4E, left panel). To determine whether hMob-5-AP could also differentially bind to the cell surface of h-ras transformed RIE cells, the receptor binding assay was conducted using hMob-5-AP in place of Mob-5-AP.
mob-5 expression is activated by both oncogenic h-ras and k-ras in intestinal epithelial cells Cancer arises from the epithelial cells rather than fibroblasts and K-ras mutations have been tightly linked with cancers of gastric intestinal origins (Kiaris and Spandidos, 1995). […] After the final 5 min extension at 72 ° C., the RT-PCR products were analyzed on a 1.5 % agarose gel. […]

In the next test the target is T1, hMob-5 (Homo sapiens, UniProt Q13007).
T1 sequence (Q13007 1-207 isoform Q13007-2): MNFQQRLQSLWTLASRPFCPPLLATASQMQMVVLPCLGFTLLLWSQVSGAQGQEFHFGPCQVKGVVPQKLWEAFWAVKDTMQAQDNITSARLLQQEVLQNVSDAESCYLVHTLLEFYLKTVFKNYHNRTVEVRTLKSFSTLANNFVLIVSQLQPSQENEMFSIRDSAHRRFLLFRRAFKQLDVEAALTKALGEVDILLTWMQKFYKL
Nature of the test: GBA bead capture ELISA for Mob-5, standard curve. Here is the method:
This allows the use of GBA in a method for detecting Mob-5 in an ELISA. GBA is utilized to capture the antigen (i.e. Mob-5) and a biotinylated monoclonal antibody to Mob-5 is used to detect the antigen. The use of GBA allows for higher capacity and lower costs when compared to the traditional ELISA method. The method is performed by diluting a biotinylated Mab-hMob-5 (for example, the monoclonal antibody produced from hybridoma clone L-14) 1:500 in PBST (Phosphate Buffered Saline, Tween 0.05%); diluting Streptavidin-HRP (Sigma) 1:500 in PBST; mixing the diluted Mab-hMob-5 with the diluted Streptavidin-HRP in equal volume (for example, […]); letting the mixture sit for 5-10 minutes; washing the GBA beads with PBST twice; spinning and removing the upper liquid phase with an aspirator; resuspending the washed GBA beads in PBST as a 50% suspension; mixing […] of a sample with 100 ml of the diluted Mab-hMob-5 and Streptavidin-HRP mixture in a tube; adding […] of resuspended GBA beads to the tube; allowing the tube to rotate on a roller for 1-2 hours; spinning down the GBA beads for 2 minutes; aspirating the supernatant; washing the beads with 1 ml of PBST twice; washing the beads with dH20 twice; removing the supernatant; adding […] of horseradish peroxidase (HRP) substrate with H2O2 to resuspend the beads; allowing the color to develop in the dark for as long as needed (from hours, to days or weeks). A hMob-5-9×His medium can be utilized as a positive control. One skilled in the art would know that variations of this protocol are possible. For example, the GBA beads may be added to the sample prior to the addition of the biotinylated Mab/streptavidin-HRP mixture, alkaline phosphatase labeled streptavidin can be used, wash times may vary, spin times may vary and development times may vary. By utilizing this method, representative results for a standard curve were obtained.
For orientation: An ELISA detects its analyte on a solid surface through an enzyme-linked reagent.

B1: Mob-5: rat secreted protein of 183 amino acids, 23 KD, encoded by oncogenic ras target gene mob-5 (protein)
chain: PELQGQEFRFGPCQVTGVVLPELWEAFWTVKNTVKTQDELTSVRLLKPQVLQNVSDAESCYLAHSLLKFYLNTVFKNYHSKIVKFKVLKSFSTLANNFLVIMSKLQPSKDNAMLPISDSARRRFLLYHRTFKQLDIEVALAKAFGEVDILLAWMQNFYQL
On to B1, for which, in the test with Rat-1 cells, the “morphological transformation on over expression” value is listed as “did not lead to any obvious morphological transformation”.

B2: hMob-5-AP: human Mob-5 fused at the C-terminus with alkaline phosphatase, 90 KD (SEQ ID NO: 10) (protein)
chain: MNFQQRLQSLWTLASRPFCPPLLATASQMQMVVLPCLGFTLLLWSQVSGAQGQEFHFGPCQVKGVVPQKLWEAFWAVKDTMQAQDNITSARLLQQEVLQNVSDAESCYLVHTLLEFYLKTVFKNYHNRTVEVRTLKSFSTLANNFVLIVSQLQPSQENEMFSIRDSAHRRFLLFRRAFKQLDVEAALTKALGEVDILLTWMQKFYKLGSSGIIPVEEENPDFWNREAAEALGAAKKLQPAQTAAKNLIIFLGDGMGVSTVTAARILKGQKKDKLGPEIPLAMDRFPYVALSKTYNVDKHVPDSGATATAYLCGVKGNFQTIGLSAAARFNQCNTTRGNEVISVMNRAKKAGKSVGVVTTTRVQHASPAGTYAHTVNRNWYSDADVPASARQEGCQDIATQLISNMDIDVILGGGRKYMFPMGTPDPEYPDDYSQGGTRLDGKNLVQEWLAKRQGARYVWNRTELMQASLDPSVTHLMGLFEPGDMKYEIHRDSTLDPSLMEMTEAALRLLSRNPRGFFLFVEGGRIDHGHHESRAYRALTETIMFDDAIERAGQLTSEEDTLSLVTADHSHVFSFGGYPLRGSSIFGLAPGKARDRKAYTVLLYGNGPGYVLKDGARPDVTESESGSPEYRQQSAVPLDEETHAGEDVAVFARGPQAHLVHGVQEQTFIAHVMAFAACLEPYTACDLAPPAGTTDAAHPG
Take B2: the “cell surface binding (bound AP activity) versus AP alone” value in test [1] is “did not exhibit any preferential cell surface binding”.

B3: hMob-5: human homolog of Mob-5, secreted protein over expressed in colon cancer (protein)
chain: MNFQQRLQSLWTLASRPFCPPLLATASQMQMVVLPCLGFTLLLWSQVSGAQGQEFHFGPCQVKGVVPQKLWEAFWAVKDTMQAQDNITSARLLQQEVLQNVSDAESCYLVHTLLEFYLKTVFKNYHNRTVEVRTLKSFSTLANNFVLIVSQLQPSQENEMFSIRDSAHRRFLLFRRAFKQLDVEAALTKALGEVDILLTWMQKFYKL
For the molecule B3, the OD405 in the test with hMob-5 (hMob-5 2 ng/ml) is reported as 0.216; with hMob-5 (hMob-5 10 ng/ml), 0.941; with hMob-5 (hMob-5 20 ng/ml), 1.881.

The values above are taken from patent US20040019193A1, “Mob-5/hmob-5 as a cancer diagnostic marker” (priority 2002, published 2004).
